Experimental data taken from patent EP1988097A1 (dated 2008).

What was measured:
[1] = target: T1, P501S peptide on HLA-B*51:01:01 (human); experiment: cytokine release
T1 peptide: ASACDVSVRV

[2] = target: T2, P501S peptide on HLA-B*51:01:01 (human); experiment: stated without data
T2 peptide: SACDVSVRV

B1: TCR of the P501S-specific T cell clone 4E5 (TCR, V domains shown)
Valpha: AQKITQTQPGMFVQEKEAVTLDCTYDTSDQSYGLFWYKQPSSGEMIFLIYQGSYDEQNATEGRYSLNFQKARKSANLVISASQLGDSAMYFCAMREGAGGGNKLTFGTGTQLKVEL
Vbeta: ETGVTQTPRHLVMGMTNKKSLKCEQHLGHNAMYWYKQSAKKPLELMFVYSLEERVENNSVPSRFSPECPNSSHLFLHLHTLQPEDSALYLCASSQDRTSSSYEQYFGPGTRLTVT
Does B1 bind [1]?
Result: recognises

Does B1 bind [2]?
Result: recognises
